Experiments:
Type in all cases: in vivo, mouse
[1] = Quantitative serum assays for common markers of liver toxicity
occludin = test: Western blot of occludin in brain after SAH; settings: wild-type mice, adropin 450 nmol/kg i.p. vs vehicle
Experimental: (§1) Synthetic adropin^34-76 peptide was supplied from Bachem (Bubendorf, Switzerland) and diluted in 0.1% BSA in saline. 0.1% BSA in saline was used as vehicle control for all experiments. Adropin (450 nmol/kg) or an equivalent volume of vehicle was delivered via intraperitoneal injection 15 minutes post-SAH. For experiments ending at 24 hours post-SAH, an identical dose of adropin/vehicle was given again 12 hours later. For experiments ending 7 days post-SAH, adropin/vehicle was given again on days 1, 3 & 5 post-SAH. In the aneurysm rupture model, adropin was given at a dose of 450 nmol/kg starting 3 days before aneurysm induction (elastase injection). Adropin was given every other day until sacrifice
(§2) SAH was modeled using the anterior circulation single autologous blood injection method^25,33 with minor adjustments. Mice were anesthetized with ketamine (100 mg/kg) and xylazine (10 mg/kg) before removing hair from scalp and cleaning with serial betadine—saline washes. The tail was also prepped from the base extending 1 cm distally. Mice were then fixed into a stereotaxic frame and body temperature maintained at 37° C. The scalp was incised along the sagittal suture from bregma to the nasal bone. […]
(§3) At 24 hours or 7 days post-SAH, mice were deeply anesthetized and perfused with 10 mL of ice-cold PBS. […] Samples were centrifuged, supernatant collected, and protein quantified via Bradford assay. […]

[2] = test system: wild-type mice, SAH model; test: TUNEL/NeuN staining for neuronal apoptosis after SAH; settings: seven days post-SAH
Experimental: as §1
SAH was modeled using the anterior circulation single autologous blood injection method^25,33 with minor adjustments. […]
Following perfusion-fixation and overnight post-fixation in 4% PFA, brain samples were embedded in paraffin wax and cut into […] sections with a Leica RM2125 RTS microtome (Leica Microsystems, Buffalo Grove, New York) and adhered to poly-L-lysine-coated glass slides. […] Primary antibodies were detected using donkey anti-rabbit IgG AlexaFluor594, donkey anti-rabbit IgG AlexaFluor488, donkey anti-rat IgG AlexaFluor594, or donkey anti-goat IgG AlexaFluor488 (all from ThermoFisher, Waltham, Massachusetts). […] All images were analyzed by two blinded observers.

[3] = test system: wild-type mice, SAH model; test: Cerebral blood flow by laser speckle contrast imaging after SAH; settings: day 1 post-SAH, adropin 450 nmol/kg i.p.
Experimental: as §1
as §2, with “C.” for “C. The scalp was incised along the sagittal suture from bregma to the nasal bone.”
One day post-SAH, animals were anesthetized with ketamine/xylazine as described above, placed in a supine position in a stereotaxic frame. […] Blood flow (perfusion) values are calculated using PIMsoft software (PeriMed AB, Stockholm, Sweden) as arbitrary “perfusion units”. […]

[4] = test system: wild-type mice, SAH model; test: Sodium fluorescein extravasation assay (blood-brain barrier permeability) after SAH; settings: 24 hours post-SAH, adropin 450 nmol/kg i.p.
Experimental: as §1
as §2, with “bone. The skin was reflected and a burr hole was drilled 5.0 mm rostral of bregma and 0.5 mm right laterally to avoid puncturing dural venous sinuses.” for “bone.”

ZO-1 = test: Western blot of ZO-1 in brain after SAH; settings: wild-type mice, adropin 450 nmol/kg i.p. vs vehicle
Experimental: as §1, §2, §3

Substance: adropin (CHSRSADVDSLSESSPNSSPGPCPEKAPPPQKPSHEGSYLLQP) [Synthetic adropin^34-76 peptide from Bachem]
- serum concentration of alanine aminotransferase (ALT) ([1]; I.P. injection of adropin): did not cause elevations
- serum concentration of aspartate aminotransferase (AST) ([1]; I.P. injection of adropin): did not cause elevations
- serum concentration of fasting glucose ([1]; I.P. injection of adropin): did not cause elevations
- serum concentration of total bilirubin ([1]; I.P. injection of adropin): did not cause elevations
- common markers of liver toxicity ([1]; adropin vs vehicle): adropin had no effect compared to vehicle treatment
- occludin expression (immunoblot) (occludin): preserved the expression of occludin
- NeuN+/TUNEL+ cells (neuronal apoptosis) [2]: did not have as many TUNEL^+ neurons
- cerebral blood flow (CBF), perfusion [3]: adropin treatment restored CBF back to baseline
- barrier permeability, average area of positive fluorescein signal [4]: adropin treatment reduced this effect
- ZO-1 expression (immunoblot) (ZO-1): preserved the expression of occludin and ZO-1
